# Assay: soluble on expression in E. coli; label from the status in PepcDB or PDB records
row,Sequence,soluble on expression in E. coli
1,MSLNLKDLIERERNCQKKKAFNCSFLDYLDIVKENPEVCKFAHKRIYDLIIKQGFHIVDKNESIKKYNFFGEDFFGIDKTLMKIVNYFYAASMEGEESKQVLYLVGPVGSGKSSIVEAIKIALEDSEPIYALENCPMREEPLHLIPNNLRRKFEKELDLKIEGDLCPVCTYRLREEFNGEIEKFPVQKIGFSIKERRGVGVVPPVDPNNQDTSVLVGSVDISKMDIYSEHDPRIFSLNGAFNVGNRGIVEFIEIFKNDIEYLHSIITATQEKLIPSPGKGSMVYYDGVIIAHSNEGEWNKFKSDPTNEAILDRIVKIEVPYCLELDEEKKIYKKILKNSNFQVHIAPHTIDVAAMFAILTRLNSSEKVDLMTKLKIYNGEEIVEKASIKKIEREELEEECRQKEGMTGVSTRFIIKAINNAICESNCSCINPIDVINSLITAVKEKDLCEEVEDKYISFLEDVVRKEYNKILYKEITKFFIESFNSQGEALFNNYLDHAEAYVNKVYLKDNITGENLDPDEEFMREIEEEIGVTENSSKGFRKDVVAYILYLIRKGEEINCNCYKPLKEAIERKLISSSREISRIINPSKIRNKAQDEKYKFIVEKLKNNGYCDTCAFYTLRYAANNFWRDEGHHHHHH,soluble
2,MGSDKIHHHHHHMAKVRKEDKLPLRMKQLGKIYRLIEQFEEISRIDLSKLSQLAPATITSLTRELIEKKLVIERAVQNTENRGRPAVGLCVSPFYWQSLCATLTYDHFDILLCELDGTTIAQEVYPLDLSDLSSLEQMLPCYFEDFLSKVGTKLSRPITFSIAVAGKLHHLSGFLQRLGEIELNVDLTSLFAGYFDIPIIVTEYFETWLLAESTLGSVIGYDDVIFLQIDDVINLSVLSKGVILQSDHKTCMNIDQIIVPRLYPMQDKINQHLFELERYQIHNQLTYKAFCQFIDLYYPNNNLINTTEKINFLCKKAQLQDPLALEILANIADIIAYILSNLVNLFSPEKIMFTSRLLSVKHVFLNQINQRLAHYLHNSKICEVMTSQYEWNSHEVIAAAIKQKIYDGSLLVYMEKY,not soluble
3,MPLLYLNTRECRWYLMGEGEMKKIAAISLISIFLISGCAVHNDETSIGKFGLAYKSNIQRKLDNQYYTEAEASLARGRISGAENIVKNDAAHFCVTQGKKMQIVDLKTEGAGLHGVARLTFKCGE,not soluble
4,MSTTGSAPLNLREWTAPEKLLPNGSPLVPVDARGADWHGIELGELDLRGAKLCRCDLRGTDLSHCQLDGADLRLARYDSQTVVPVGFDLSNSGAVGPGAKLNGVYLNSSDLRGMDLRGSMLLGSYLSGADLSGAILDGVSLAGSDLRSSTMRGAMCRGTRFGTCELDMADLRGANLEGAVLETVESIRGADFSLCTGLGAQIDALLSRSVAELDCWNPLTRSTTRDSLESLRAARSD,not soluble
5,MDHQLSQHDIFISQDGQLQLTVAVDTETVWLTQAEICVLFDRERSVITKHINNVFKEGELERDSVCAIFARTADDGKTYQTQYFNLDVIISVGYRVKSKRGVQFRQWATNTLKQHLLQGYTLNQQRLVQRGIEFNQALALLSKTLTNQALINPDGQAVVNVIAEYARSWSLLQGYDEQSLTEITHKQQQMQPLALDEVLAAIAALKTNLIAKGEATDLFAQLRGNGLASSIATIEQGFGGEWFYPNVASRAAHLLYFIIKNHPFADGNKRTGSFLFLWYLQQNQHLLAKPVSEQINDTTLVALALLVAESLPDQKELMIRLIEHFILLKDSEAAALEHHHHHH,soluble
6,MVAADIGAGLADALTAPLDHKDKGLQSLTLDQSVRKNEKLKLAAQGAEKTYGNGDSLNTGKLKNDKVSRFDFIRQIEVDGQLITLESGEFQVYKQSHSALTAFQTEQIQDSEHSGKMVAKRQFRIGDIAGEHTSFDKLPEGGRATYRGTAFGSDDAGGKLTYTIDFAAKQGNGKIEHLKSPELNVDLAAADIKPDGKRHAVISGSVLYNQAEKGSYSLGIFGGKAQEVAGSAEVKTVNGIRHIGLAAKQHHHHHH,soluble
7,MGHHHHHHSHMTLRCLEPSGNGGEGTRSQWGTAGSAEEPSPQAARLAKALRELGQTGWYWGSMTVNEAKEKLKEAPEGTFLIRDSSHSDYLLTISVKTSAGPTNLRIEYQDGKFRLDSIICVKSKLKQFDSVVHLIDYYVQMCKDKRTGPEAPRNGTVHLYLTKPLYTSAPSLQHLCRLTINKCTGAIWGLPLPTRLKDYLEEYKFQV,not soluble
8,MQHYLHIRPAPSDNLPLVDLIEHPDPIFDPKEKDLNETLLRSLLGGHYDPGFMATSPPEDRPGGGGGAAGGAEDLAELDQLLRQRPSGAMPSEIKGLEFSEGLAQGKKQRLSKKLRRKLQMWLWSQTFCPVLYAWNDLGSRFWPRYVKVGSCFSKRSCSVPEGMVCKPSKSVHLTVLRWRCQRRGGQRCGWIPIQYPIISECKCSC,soluble
9,MGSDKIHHHHHHMVTYAGKLVLAPMVRAGELPTRLMALAHGADLVWSPEIIDKKLIQCVRKENTALQTVDYVVPSKVQTRPETLVFRTYPKLESSKLIFQIGSASPALATQAALKVINDVSGIDINAGCPKHFSIHSGMGSALLRTPDTLCLILKELVKNVGNPHSKPISVKIRLLDTKQDTLQLVKRLCATGITNLTVHCRKTEMRNREQPITDYIAEIYEICQANNVSLIVNGAIRDRSHFHDLQANHWKNTNIGGMIAECAERDPTVFDHTSKPSEDGPSWVVACREFIQWATKFDNHIGNTKYMLSRIVPGKSVFFQYFARCKSPEEVSFVLKQLNDDGSAQTDPSEYLENCRAQEKALKNANAIAKQKRKQTDHIGSDTKKQKVVPLPTDI,not soluble
10,GMGQRSDSDHVMAEATTDKRQGHTRGRTGNDRRTQIIKVATELFREKGYYATSLDDIADRIGFTKPAIYYYFKSKEDVLFAIVNSIVDEALERFHAIAAGPGSPGERIHALLVEHTRTILRNLDANTLFYNERGLLSPEREREMRKREREYTEIMQRLYAEGVATGELLDVDPTVATATLLGAAIWTYRWYDPEGRLSADEVVEQITRLLLNGYRRPA,soluble
11,MAHHHHHHMYPKNELQVLNILYIIIYSFFVDEEIDNIKDETQEIQAYNYTSLMIPSDVSSENNSDTKHFSVVTISFFILYSENIKQVLNLQESIDIQKIKEKKEKKKKQEVFKDIMCSDIKYEKKIKRKKKKIFENKRSSKKNKNNIRDFINLEKDIIITKTLMYNKKKKLDDIYKYTSKKEKTINNLNKNMIKEAAHMQELLIENFKKTEDLIKVRRGGGKIKKKEKTQRIYIHIYIHIYIHI,not soluble
12,MGSDKIHHHHHHMLNKLCMYLERPELYKQSEINFWDDEYISKQLLKAHLDTNFEGASRNFNFIEDSVNWIVTVANPANYPKLLDLGCGPGLYAEKFAQKGYKVTGIDFSKRSINYAQNRNKETNLNINYLFQSYLNMNYNEEFDLATLIYCDYGALSTENRRLLMEKIYDSLKPGGKLILDVFTINKYNNFEEIKYWEINEDGGFWSNEKYMCLQDNCKYNDYNTLEQTLVITEKDENVFYVWNHYFSKESFLLEVENIGFKSVEFFSNVKGEAYSDDSMTMGLVLQK,not soluble
13,MSLENHHEAKTKLGQLWKLGNHYLLCGDATKLSDVEKLLQGKKANLVVTDPPYNVAVKSDNKELNESGREKIMNDDMSDEEFDQFLMSVFQNYSNAMRDDSAIYVFHGSSYQREFENSMNAAGIVVRSQCIWVKNNATFGWSQYRWQHEPVFYAHKKKQAPSWYGDRKQTTIWQDDLLEDLPATIWKVPRDDVATYYHPTQKPLSLIAIPVRNSSKRQDIVLDLFGGSGSTLMTCEQLNRICYTLELDPLFCDVIIERFEKSTGIIAELVEGHHHHHH,soluble
14,MGSDKIHHHHHHMSDVKGKNMTKKKPVLKRFNYRLNKLHVKNLKGIKDFTLNFEKDKLVTGIVGINGSGKSTLIHALACAFKPIGKATSKDFNRLSHFFTPNKDASWEGSEFEIEFEFDELTIKPNSEPTKKLINHTEVYSKKQGKKVSRWLPIYGRRHERESAYIGLHDLATLSEDKNAGRYKEYETEDLAHEASDKIKEDLVYILGRNYNRLTTCLVKQKDKVHTLFGLVFNGVEYSEHSMGAGEKRLLTILSALHNPKLAKGGLLLIDEIDVLLHGMAFKRLIERIIKRANENKIEVIFSTHRETIIDFKNDLLIYGVLNTGKGVIPMPHTHPQVMQQLTGVRTVPIEIYVEDDLATSVIETLLYQKHATHYVNITKFGTWSNAFAILAGKILMDSDISETLCVLDGDVCNTIEERTSECQRHLNGDDKNEHRQSMLNHIVEFKLANIAPQGSGGSPEYNIKIMFESIESDDPRVVELQRYSREMQGLEDWHVYFDILAETSGIRTARDKVLEAISETGQWNDYIVEISNWLDEKLKIYLPVRVQEEENLVTV,not soluble
15,GSKGDSKETRLTLMEEVLLLGLKDREGYTSFWNDCISSGLRGCMLIELALRGRLQLEACGMRRKSLLTRKVICKSDAPTGDVLLDEALKHVKETQPPETVQNWIELLSGETWNPLKLHYQLRNVRERLAKNLVEKGVLTTEKQNFLLFDMTTHPLTNNNIKQRLIKKVQEAVLDKWVNDPHRMDRRLLALIYLAHASDVLENAFAPLLDEQYDLATKRVRQLLDLDPEVECLKANTNEVLWAVVAAFTK,soluble
16,MSLPTEMHHNLGAEKRSAVATTIDSFKERSQKVRALSDPNVRFVPFFGSSEWLRFDGAHPAVLAEKYNRSYRPYLLGQGGAASLNQYFGMQQMLPQLENKQVVYVISPQWFSKNGYDPAAFQQYFNGDQLTSFLKHQSGDQASQYAATRLLQQFPNVAMKDLVQKLASKEELSTADNEMIELLARFNERQASFFGQFSVRGYVNYDKHVAKYLKILPDQFSYQAIEDVVKADAEKNTSNNEMGMENYFYNEQIKKDLKKLKDSQKSFTYLKSPEYNDLQLVLTQFSKSKVNPIFIIPPVNKKWMDYAGLREDMYQQTVQKIRYQLESQGFTNIADFSKDGGEPFFMKDTIHLGWLGWLAFDKAVDPFLSNPTPAPTYHLNERFFSKDWATYDGDVKEFQEGHHHHHH,soluble
17,MAAECATQRAPGSVVELLGKSYPQDDHSNLTRKVLTRVGRNLHNQQHHPLWLIKERVKEHFYKQYVGRFGTPLFSVYDNLSPVVTTWQNFDSLLIPADHPSRKKGDNYYLNRTHMLRAHTSAHQWDLLHAGLDAFLVVGDVYRRDQIDSQHYPIFHQLEAVRLFSKHELFAGIKDGESLQLFEQSSRSAHKQETHTMEAVKLVEFDLKQTLTRLMAHLFGDELEIRWVDCYFPFTHPSFEMEINFHGEWLEVLGCGVMEQQLVNSAGAQDRIGWAFGLGLERLAMILYDIPDIRLFWCEDERFLKQFCVSNINQKVKFQPLSKYPAVINDISFWLPSENYAENDFYDLVRTIGGDLVEKVDLIDKFVHPKTHKTSHCYRITYRHMERTLSQREVRHIHQALQEAAVQLLGVEGRF,soluble
18,MAFELSPSDLEPLLQGACFFGSGGGGTMISARHLAANFRKGDYYPTDKVRVVDVDEATDGDCVMVAYMGAPDAINQVQWPNGPVEAALAARQRLESQGRKLAYVVAPESGALGFVVASLVAAKLGLAVVDADGAGRAVPSLPMLTYAAAGVPPTPAFLAGESGLCVELGVRMPPPDGQRREDISTVVEQMLRPILTNPQFGQFGGLAMWMMSPAQLGGALPVRGTLSRALKLGRALQDGKVKTAEAMLDFLRRELDIKGKLLFGPATLASSEVSTAGGFDLGKVVLEDGERRCTVLYQNESLLAWDSALSHPLATAPDAISYFVEGEGQHVFSNGDLSGNDHGLDPSVRGRKAAVIALPAAAPLSEGLILQSFADELAQLGYLGPYAPVDAGREGARLEHHHHHH,soluble
19,MATSSAASVDMEDIQTVDLMSELLRRMKCASKPDKRLVFIGPPGSGKGTQSPVIKDEFCLCHLSTGDMLRAAVAAKTPLGVKAKEAMDKGELVSDDLVVGIMDEAMNRPKCQKGFILDGFPRTVTQAEKLDEMLNRRGAQIDKVLNFAIDDSVLEERITGRWIHPSSGRSYHTKFAPPKVPGVDDLTGEPLIQRKDDNADVLRSRLDAFHKQTQPVIDYYAKKENLVNIPAEKAPEEVTKVVKKVVST,soluble

# From the DeepSol protein solubility set
